Reference: the RNAGym collection of RNA variant scans (doi:10.7554/elife.80360)

B1: Twister Ribozyme (parent)
chain: AACACUGCCAAUGCCGGUCCCAAGCCCGGAUAAAAGUGGAGGGGGCGG

Variants of: B1
Test: self-cleavage, relative activity (ratio to wild type); higher = more cleavage; co-transcriptional

Variant	self-cleavage
AACACUGCCACUGCCGGUCCCAACCCCGGAUAAAAGUGGAGGGGGCGG [A11C G24C]	0.0648
AACACUGCCAAUGCCGGUCCCAAGCCUGGAUAAUAGUGGAGGGGGCGG [C27U A34U]	0.567
AACACUGCCAAUCCCGGUCCCAAGCCCGGAUAAAAGAGGAGGGGGCGG [G13C U37A]	0.075
AACACUGCCGAUGCCGGUCCCAAGCCCGGAUAAUAGUGGAGGGGGCGG [A10G A34U]	0.959
AACCCUGCCAAUGCCGGUCCCAUGCCCGGAUAAAAGUGGAGGGGGCGG [A4C A23U]	0.0688
AACACUGCCAAUGCCGGUCCCAACCCCGGAUAAAAGUGGAGGGGGCCG [G24C G47C]	0.0946
AACACUGCCAAUGCCGGUCCCACGCCCGGAUUAAAGUGGAGGGGGCGG [A23C A32U]	0.241
AAGACUGCCAAUGCCGGUCCCAAGCCCAGAUAAAAGUGGAGGGGGCGG [C3G G28A]	0.239
AACACUGCCAAUGCCGGUCCCAAGUCCGGAUAAAAAUGGAGGGGGCGG [C25U G36A]	0.263
AACCCCGCCAAUGCCGGUCCCAAGCCCGGAUAAAAGUGGAGGGGGCGG [A4C U6C]	0.0627
AACACUGCCAAUGCCGGUCCCAAGCCGGGAUUAAAGUGGAGGGGGCGG [C27G A32U]	0.115
AACACUGCCAAUGCCUGUCCCAAGCCCGGAUAAAAGUGGAGGGGGCAG [G16U G47A]	0.378
AACACUGCCAAUGCCGGUCCCAAGCCCUGAUAAAAGUGGAGGGGGUGG [G28U C46U]	0.922
AACAUUGCCACUGCCGGUCCCAAGCCCGGAUAAAAGUGGAGGGGGCGG [C5U A11C]	0.541
AACACAGCCAAUGCCGGUCCCAAGCCCGGAUAAAAGCGGAGGGGGCGG [U6A U37C]	0.124
AACACUGCCAAUGCCAGUCCCAGGCCCGGAUAAAAGUGGAGGGGGCGG [G16A A23G]	0.161
AACACUGCCAAUGCCGGACCCAAGACCGGAUAAAAGUGGAGGGGGCGG [U18A C25A]	0.0777
AACACUGCCCAUGCCGGUCUCAAGCCCGGAUAAAAGUGGAGGGGGCGG [A10C C20U]	0.941
AACACUGCCAAUGUCGGUCGCAAGCCCGGAUAAAAGUGGAGGGGGCGG [C14U C20G]	0.2
AACACUGCCAAUGCCGGUCCCAAGCCAGGAUAAAAGUGGCGGGGGCGG [C27A A40C]	0.155
AACACUGCCAAUACCGGUCCCAAGCCCGGAUAAAAGUGGAGGUGGCGG [G13A G43U]	0.182
AACACUGCCAAUGCCGGUCCUAAGCCCGGAUAAAAGUCGAGGGGGCGG [C21U G38C]	0.0755
AGCACUGCCAAUGCCGGUCCCAAGCCCGGAUAAAAGGGGAGGGGGCGG [A2G U37G]	0.173
ACAACUGCCAAUGCCGGUCCCAAGCCCGGAUAAAAGUGGAGGGGGCGG [A2C C3A]	0.101
AACACUGCCAAUGCCGGUCCCAAGCCCGAAUAAACGUGGAGGGGGCGG [G29A A35C]	0.762
AACACUGCCAAUGCCGGUCCCAAGUCCGGAUCAAAGUGGAGGGGGCGG [C25U A32C]	0.903
AACACUGCCAAUGCCGGUCCCAAGCCCGGGUAAAAGUGGAGGGGUCGG [A30G G45U]	0.757

Variant	self-cleavage
AACACUGCCAAUACCGGGCCCAAGCCCGGAUAAAAGUGGAGGGGGCGG [G13A U18G]	0.0757
AACACUCCCAAUGCCGGUCCCAAGACCGGAUAAAAGUGGAGGGGGCGG [G7C C25A]	0.0795
AAGACUGCCAAUGCCUGUCCCAAGCCCGGAUAAAAGUGGAGGGGGCGG [C3G G16U]	0.608
AACACUGCCAAUCCCAGUCCCAAGCCCGGAUAAAAGUGGAGGGGGCGG [G13C G16A]	0.129
AACACUGCCAAUGCCGGUCCAAAGCCCGGAUAAAAGUGGAGGGGGCGC [C21A G48C]	0.171
AACACUGCCAAUGCCGGUCCCAAGCGCGGAUAAAAGCGGAGGGGGCGG [C26G U37C]	0.0957
AAUACUGCAAAUGCCGGUCCCAAGCCCGGAUAAAAGUGGAGGGGGCGG [C3U C9A]	0.147
AACACUGCCAAUGCCGGUUCCAAGCCCAGAUAAAAGUGGAGGGGGCGG [C19U G28A]	0.758
AACACUGCCACUGUCGGUCCCAAGCCCGGAUAAAAGUGGAGGGGGCGG [A11C C14U]	0.909
AACACUGCCAAUGCAGGUCCCAAGCCCGGAUAAAAGUGGAGUGGGCGG [C15A G42U]	0.14
AACACUGCCAAUGCAGGUCCCAAGCCCGGAUAAAUGUGGAGGGGGCGG [C15A A35U]	0.774
UACACUGCCAAUGCCGGUCCCAAGCCCGGAUAAAAGUGGAUGGGGCGG [A1U G41U]	0.0585
AACACUGCCAAUGACGGUCCCAAGCCCUGAUAAAAGUGGAGGGGGCGG [C14A G28U]	0.854
AACACUGCCAAUGCCGGUCCCAAACCCGGAUAAAAGUGGAGGCGGCGG [G24A G43C]	0.107
AACACUUCCAAUGCCGGUCCCAAGCCCGAAUAAAAGUGGAGGGGGCGG [G7U G29A]	0.0635
AACAUUGCCAAUGCCGGUCCCAAGCCCGGAUAAAAGAGGAGGGGGCGG [C5U U37A]	0.547
AACACUGCCAUUGCCGGUCCCAAGCCCGGAUAAAAGUUGAGGGGGCGG [A11U G38U]	0.875
AACACUGCCAAUGCCGGCCCCAAGCCAGGAUAAAAGUGGAGGGGGCGG [U18C C27A]	0.0979
AACACUGCCCAUGCCGGUCCCAAGCCCGGAUAAAAGUGGAGAGGGCGG [A10C G42A]	0.31
AAAACUGCCAAUGCCGGUCCCAAGCCCGGAGAAAAGUGGAGGGGGCGG [C3A U31G]	0.121
AACACUGCCAAUACCGUUCCCAAGCCCGGAUAAAAGUGGAGGGGGCGG [G13A G17U]	0.108
AACACUGCCAAUGCCGGUCCAAAGCCCGGAUAAAAGUGGAGGGGACGG [C21A G45A]	0.114
AACCCUGCCAAUGCCGGUCCCAAGCCCGGAUAUAAGUGGAGGGGGCGG [A4C A33U]	0.152
AACGCUGCAAAUGCCGGUCCCAAGCCCGGAUAAAAGUGGAGGGGGCGG [A4G C9A]	0.698
AACACUGCCAAUGCCGGUCCCAAACCCGGAUAAAAGUGGAGGGGGCGC [G24A G48C]	0.112
AACACUGCCAAUGCCGGUCCCAAGCCCGGAUAAAACUGGAGGGCGCGG [G36C G44C]	0.402
AACACUGACAAUGCCGGUCCCAAGCCCGGAUAAAAGUGGAGGAGGCGG [C8A G43A]	0.177
